Marks after values point to notes of the source that are not given here.
Assays:
[1] = Photophysical properties of fluorophores and RNA-fluorophore complexes (Squash study); assay type: physicochemical
Procedure: All RNAs used for in vitro studies (except the initial hits from SELEX and the DE2-6 mutants) were purified using 8% denaturing PAGE (7M urea) and eluted in 0.3 M NaOAc (pH 5.2) overnight. The RNA was ethanol precipitated and quantified using absorbance in a NanoDrop 2000 spectrometer. All in vitro RNA properties were measured in 40 mM HEPES-KOH (pH 7.4), 100 mM KCl, 0.5 mM MgCl2 buffer unless specified.
Absorption, excitation, and emission spectra were measured using conditions where the RNA is in excess and the fluorophore is limiting to ensure that no free fluorophore contributes to the absorbance or fluorescence signal (FIGS. 7A-7D).
All quantum yields were determined by comparing each RNA-fluorophore complex with Broccli-DFHBI-1T or Corn-DFHO. All measurements for quantum yield were taken in the presence of excess RNA (10 μM final) compared to the fluorophores (0.2 μM final) to avoid interference from unbound fluorophore. The integral of the emission spectra for each Squash-fluorophore complex was compared with the corresponding integrals for Broccoli or Corn to calculate the quantum yield.

HEK293T cells = experiment: RNA assemblies of multivalent Corn or Beetroot in cells; assay type: cell-based; settings: circular RNA, means±s.d.
Procedure: FIGS. 33A-33C provide the dissociation constant (Kd) of Beetroot homodimer. […] These RNAs were incubated at 20° C. for 12 hours and then analyzed using non-denaturing gel electrophoresis (FIG. 33A). The fraction of Beetroot monomer (FIG. 33B) and Beetroot dimer (FIG. 33C) were quantified after SYBR Gold staining. […] The RNA band marked with an asterisk (*) reflects an RNA side product from in vitro transcription. The same side product band was also observed in FIGS. 27B-27C. Quantification shown in […] is based on two independent experiments. FIG. 33D are images showing genetic encoding of simple macromolecular RNA assemblies in cells using Corn when circular RNAs containing 3 and 5 copies of Corn were expressed in HEK293T cells. Clusters of these Corn-containing RNAs were observed as large intracellular puncta. Data shown here is a representative image from three independent cell cultures. Scale bar, 20 μm. FIG. 33E is a graph showing the quantification of the fraction of Corn and Beetroot in the cell that accumulates in puncta. As the valency of Corn increases from three to five, the fraction of Corn participating in the RNA assembly increases from 28±12% to 57±14%. Compared to 5× Corn, a fraction of 27±11% of 5× Beetroot are participating in the Beetroot RNA assembly. Values are means±s.d. FIG. 33F is a graph showing quantification of RNA assembly size in cells. Shown are the size distribution of RNA assemblies created using the indicated multivalent Corn or Beetroot RNA. As the valency of Corn increases from three to five, an increase in the median RNA assembly size was noticed from 0.88±0.37 μm to 1.0±0.54 μm. Compared to 5× Corn, 5× Beetroot assembly has a size of 0.68±0.25 μm. Values are means±s.d.
For to live-cell fluorescence imagining experiments, HEK293T cells were seeded into 35-mm imaging dishes precoated with poly-D-lysine (Mattek Corporation, P35GC-1.5-14C) and mouse laminin I (Cultrex, 3401-010-02) with a cell density of 4.5×10^5 cells per dish. On the next day, HEK293T cells were transfected with DNA plasmids as indicated in figures with fluorescence imaging experiments using FuGENE HD. Transfections were performed according FuGENE HD manufacturer's instructions. HEK293T cells were then cultured for two days before imaging.
Prior to imaging experiments, HEK293T cells were incubated with 1 μl of Hoechst 33342 (Thermo Fisher Scientific, H3570) per 2 ml of imaging media (phenol red-free Dulbeco's modified Eagle's medium (Thermo Fisher Scientific 31053-028) supplemented with 10% fetal bovine serum (Corning 35-010-CV), 100 U ml-1 of penicillin and […] of streptomycin, 1× GlutaMAX (Thermo Fisher Scientific, 35050-061) and 1 mM sodium pyruvate (Thermo Fisher Scientific, 11360-070)). For imaging experiments of RNA-fluorophore complex, HEK293T cells were incubated with imaging media supplemented with a final concentration of 10 μM fluorophore (DFHO or DFAME) and 5 mM MgCl2 for one hour prior to imaging.
For all imaging experiments, an epifluorescence inverted microscope (Nikon Eclipse TE2000-E) was used equipped with a CoolSnap HQ2 CCD camera and a 130-W Nikon mercury lamp. The microscope and camera were controlled using the NIS-Elements Advanced Research software (Nikon). Cells were imaged with a 60× oil objective with a numerical aperture of 1.4 (Nikon) at 37° C. A FITC filter cube (with excitation filter 470±20 nm, dichroic mirror 495 nm (long pass) and emission filter 525±25 nm) was used for imaging GFP-N-peptide. A YFP filter cube (with excitation filter 500±12 nm, dichroic mirror 520 nm (long pass) and emission filter 542±13.5 nm) was used for imaging Corn-DFHO complex. A tetramethylrhodamine filter cube (with excitation filter 560±20 nm, dichroic mirror 585 nm (long pass) and emission filter 630±37.5 nm) was used for imaging mCherry-MCP and Beetroot-DFAME complex.

[2] = 40 mM HEPES-KOH (pH 7.4), 100 mM KCl, 0.5 mM MgCl2

CC1=N/C(=C\c2cc(F)c(O)c(F)c2)C(=O)N1CC(F)(F)F [DFHBI-1T, (Z)-4-(3,5-difluoro-4-hydroxybenzylidene)-2-methyl-1-(2,2,2-trifluoroethyl)-1H-imidazol-5(4H)-one]
Emission maximum [1, 2]: 495 nm | Excitation maximum [1, 2]: 426 nm | Fluorescence quantum yield ([1]; compared with Broccoli-DFHBI-1T or Corn-DFHO): 0.00098 | Extinction coefficient ([1]; free DFHBI-1T, at 452 nm): 19,900* M^−1cm^−1 | Brightness (extinction coefficient × quantum yield) ([1]; relative to Broccoli): 0.12

B1: 3× Corn: circular RNA containing 3 copies of Corn, SEQ ID NO: 100 (nucleic acid)
chain: AACCAUGCCGACUGAUGGCAGUACCGUAGGCGAAUUCUUGCCAUGUGUAUGUGGGAGGCCCGGAUAGCUCAGUCGGUAGAGCAGCGGCCGCGCGAUUCGAGGAAGGAGGUCUGAGGAGGUCACUGAAUCGCGCGGCCGCGGGUCCAGGGUUCAAGUCCCUGUUCGGGCCUCCCACAUACUCUGAUGAUCCAAAACUGCCCGAGGAUCAUUCAUGGCAAACUCGACGUUCGUCAGACUCCUCGCGAUGUCUAUGCGGGAGGCCCGGAUAGCUCAGUCGGUAGAGCAGCGGCCGCGCGAUUCGAGGAAGGAGGUCUGAGGAGGUCACUGAAUCGCGCGGCCGCGGGUCCAGGGUUCAAGUCCCUGUUCGGGCCUCCCGCAUAGUCUGAUCAUCCAAAACUGCCCGAGGGGAUGAUUCAUCGCGAAUCGCGACGAUCGUCACUACCGGCGUCUGACGAACGUCGAACUCGCCGUGUGUGUGUAGGAGGCCCGGAUAGCUCAGUCGGUAGAGCAGCGGCCGCGCGAUUCGAGGAAGGAGGUCUGAGGAGGUCACUGAAUCGCGCGGCCGCGGGUCCAGGGUUCAAGUCCCUGUUCGGGCCUCCUACACACUCUGACGAUCCAAAACUGCCCGAGGGGAUCGUUCACGGCGAACUCACGUCGGUGGAGCUAGCGCCUACGGUACUGCCAUCAGUCGGCGUGGACUGUAG
modifications: circular
Fraction of RNA in the cell that accumulates in puncta (HEK293T cells): 28±12% | RNA assembly size (HEK293T cells): 0.88±0.37 μm

B2: 5× Beetroot: circular RNA comprising 5× Beetroot fused to boxB, SEQ ID NO: 102 (nucleic acid)
chain: AACCAUGCCGACUGAUGGCAGUACCGUAGGCGAAUUCUUGCCAUGUGUAUGUGGGAGGCCCGGAUAGCUCAGUCGGUAGAGCAGCGGCCGGUUAGGCAGAGGUGGGUGGUGUGGAGGAGUAUCUGUCCGGCCGCGGGUCCAGGGUUCAAGUCCCUGUUCGGGCCUCCCACAUACUCUGAUGAUCCAAAACUGCCCGAGGAUCAUUCAUGGCAAACUCGACGUUCGUCAGACUCCUCGCGAUGUCUAUGCGGGAGGCCCGGAUAGCUCAGUCGGUAGAGCAGCGGCCGGUUAGGCAGAGGUGGGUGGUGUGGAGGAGUAUCUGUCCGGCCGCGGGUCCAGGGUUCAAGUCCCUGUUCGGGCCUCCCGCAUAGUCUGAUCAUCCAAAACUGCCCGAGGGGAUGAUUCAUCGCGAAUCGCGACGAUCGUCACUACCGGUGACUCGCUAUCGGUUAUGGCAUGUACAACUUGCGACUUUGCCAUGUGUAUGUGGGAGGCCCGGAUAGCUCAGUCGGUAGAGCAGCGGCCGGUUAGGCAGAGGUGGGUGGUGUGGAGGAGUAUCUGUCCGGCCGCGGGUCCAGGGUUCAAGUCCCUGUUCGGGCCUCCCACAUACUCUGAUGAUCCACGCGUACAUUGGCCCUGAAAAAGGGCAAGCGAGGUACCAUCAUUCAUGGCAAAGUCGCAAGUAUCGGUCAACCUAGUGGGCCCAGUGACGAUCGUCGCCCAUCGCCUUGUGUCUGUUGGAGGCCCGGAUAGCUCAGUCGGUAGAGCAGCGGCCGGUUAGGCAGAGGUGGGUGGUGUGGAGGAGUAUCUGUCCGGCCGCGGGUCCAGGGUUCAAGUCCCUGUUCGGGCCUCCAACAGACUCUGACGAUCCAAAACUGCCCGAGGGGAUCGUUCAAGGCGAGAGCUCGUCUGACGAACGUCGAACUCGCCGUGUGUGUGUAGGAGGCCCGGAUAGCUCAGUCGGUAGAGCAGCGGCCGGUUAGGCAGAGGUGGGUGGUGUGGAGGAGUAUCUGUCCGGCCGCGGGUCCAGGGUUCAAGUCCCUGUUCGGGCCUCCUACACACUCUGACGAUCCAAAACUGCCCGAGGGGAUCGUUCACGGCGAACUCACGUCGGUGGAGCUAGCGCCUACGGUACUGCCAUCAGUCGGCGUGGACUGUAG
modifications: circular
Fraction of RNA in the cell that accumulates in puncta (HEK293T cells): 27±11% | RNA assembly size (HEK293T cells): 0.68±0.25 μm

B3: 5× Corn: circular RNA containing five Corn monomers, same as 5X Corn-MS2, SEQ ID NO: 101 (nucleic acid)
chain: AACCAUGCCGACUGAUGGCAGUACCGUAGGCGAAUUCUUGCCAUGUGUAUGUGGGAGGCCCGGAUAGCUCAGUCGGUAGAGCAGCGGCCGCGCGAUUCGAGGAAGGAGGUCUGAGGAGGUCACUGAAUCGCGCGGCCGCGGGUCCAGGGUUCAAGUCCCUGUUCGGGCCUCCCACAUACUCUGAUGAUCCAAAACUGCCCGAGGAUCAUUCAUGGCAAACUCGACGUUCGUCAGACUCCUCGCGAUGUCUAUGCGGGAGGCCCGGAUAGCUCAGUCGGUAGAGCAGCGGCCGCGCGAUUCGAGGAAGGAGGUCUGAGGAGGUCACUGAAUCGCGCGGCCGCGGGUCCAGGGUUCAAGUCCCUGUUCGGGCCUCCCGCAUAGUCUGAUCAUCCAAAACUGCCCGAGGGGAUGAUUCAUCGCGAAUCGCGACGAUCGUCACUACCGGUUCACUUUGUAGACCAGGCUGGUGUACAACUUGCGACUUUGCCAUGUGUAUGUGGGAGGCCCGGAUAGCUCAGUCGGUAGAGCAGCGGCCGCGCGAUUCGAGGAAGGAGGUCUGAGGAGGUCACUGAAUCGCGCGGCCGCGGGUCCAGGGUUCAAGUCCCUGUUCGGGCCUCCCACAUACUCUGAUGAUCCACGCGUAACAUGAGGAUCACCCAUGUCGAGGUACCAUCAUUCAUGGCAAAGUCGCAAGUAUCGGUCAACCUAGUGGGCCCAGUGACGAUCGUCGCCCAUCGCCUUGUGUCUGUUGGAGGCCCGGAUAGCUCAGUCGGUAGAGCAGCGGCCGCGCGAUUCGAGGAAGGAGGUCUGAGGAGGUCACUGAAUCGCGCGGCCGCGGGUCCAGGGUUCAAGUCCCUGUUCGGGCCUCCAACAGACUCUGACGAUCCAAAACUGCCCGAGGGGAUCGUUCAAGGCGAGAGCUCGUCUGACGAACGUCGAACUCGCCGUGUGUGUGUAGGAGGCCCGGAUAGCUCAGUCGGUAGAGCAGCGGCCGCGCGAUUCGAGGAAGGAGGUCUGAGGAGGUCACUGAAUCGCGCGGCCGCGGGUCCAGGGUUCAAGUCCCUGUUCGGGCCUCCUACACACUCUGACGAUCCAAAACUGCCCGAGGGGAUCGUUCACGGCGAACUCACGUCGGUGGAGCUAGCGCCUACGGUACUGCCAUCAGUCGGCGUGGACUGUAG
modifications: circular
Fraction of RNA in the cell that accumulates in puncta (HEK293T cells): 57±14% | RNA assembly size (HEK293T cells): 1.0±0.54 μm

From patent publication US20250043290A1, “RNA SEQUENCES THAT INDUCE FLUORESCENCE OF SMALL MOLECULE FLUOROPHORES, MOLECULAR COMPLEXES, SENSORS, AND METHODS OF USE THEREOF” (CORNELL UNIVERSITY, priority 2021, published 2025)
